Assay results as given in patent US20190015483A1 (CSL BEHRING RECOMBINANT FACILITY, published 2019).

Target: T1, recombinant Factor VIII (CSL627, rVIII-SingleChain) (Homo sapiens (Human), UniProt P00451 20-2351)
T1 construct: also called FVIII
T1 sequence: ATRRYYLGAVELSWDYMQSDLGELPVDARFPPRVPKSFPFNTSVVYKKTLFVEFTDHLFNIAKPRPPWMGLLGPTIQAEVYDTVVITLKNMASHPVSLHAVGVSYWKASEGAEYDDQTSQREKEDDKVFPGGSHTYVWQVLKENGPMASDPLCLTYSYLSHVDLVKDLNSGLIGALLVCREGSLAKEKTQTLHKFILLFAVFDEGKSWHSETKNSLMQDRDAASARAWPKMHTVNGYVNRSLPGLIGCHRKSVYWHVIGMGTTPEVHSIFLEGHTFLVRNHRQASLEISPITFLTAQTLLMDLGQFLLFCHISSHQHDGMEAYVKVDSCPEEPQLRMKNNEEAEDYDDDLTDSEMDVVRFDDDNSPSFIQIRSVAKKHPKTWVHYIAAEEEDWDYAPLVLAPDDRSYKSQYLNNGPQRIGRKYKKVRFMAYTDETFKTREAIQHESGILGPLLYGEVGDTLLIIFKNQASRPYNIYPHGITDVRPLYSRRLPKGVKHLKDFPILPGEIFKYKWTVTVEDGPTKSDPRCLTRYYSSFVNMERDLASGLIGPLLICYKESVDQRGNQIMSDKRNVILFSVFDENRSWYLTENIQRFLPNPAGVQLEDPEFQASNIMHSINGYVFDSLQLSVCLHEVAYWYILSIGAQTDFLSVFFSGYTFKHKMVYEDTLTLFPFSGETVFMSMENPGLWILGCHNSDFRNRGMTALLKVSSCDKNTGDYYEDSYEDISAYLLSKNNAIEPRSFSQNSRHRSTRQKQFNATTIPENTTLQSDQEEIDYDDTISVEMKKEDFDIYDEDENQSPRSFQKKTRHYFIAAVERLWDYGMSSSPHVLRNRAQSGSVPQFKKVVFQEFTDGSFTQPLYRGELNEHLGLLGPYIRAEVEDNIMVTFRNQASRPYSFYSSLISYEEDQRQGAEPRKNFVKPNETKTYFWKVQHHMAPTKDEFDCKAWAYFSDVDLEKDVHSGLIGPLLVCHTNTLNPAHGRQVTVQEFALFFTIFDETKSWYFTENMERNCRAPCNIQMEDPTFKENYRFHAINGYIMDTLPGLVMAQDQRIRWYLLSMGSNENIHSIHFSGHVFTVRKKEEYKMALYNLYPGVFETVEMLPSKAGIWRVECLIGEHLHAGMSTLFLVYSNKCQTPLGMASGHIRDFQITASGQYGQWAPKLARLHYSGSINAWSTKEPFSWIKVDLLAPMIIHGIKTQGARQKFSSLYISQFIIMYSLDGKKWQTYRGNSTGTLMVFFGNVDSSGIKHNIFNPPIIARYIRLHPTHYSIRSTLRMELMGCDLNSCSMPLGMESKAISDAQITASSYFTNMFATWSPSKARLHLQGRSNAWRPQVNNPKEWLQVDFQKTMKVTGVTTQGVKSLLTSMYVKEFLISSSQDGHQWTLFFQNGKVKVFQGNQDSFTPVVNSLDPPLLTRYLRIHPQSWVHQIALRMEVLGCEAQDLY
Assay: SPR, anti-His capture
Procedure: Binding kinetics were investigated by surface plasmon resonance using a Biacore 4000 biosensor at 37° C. Each mutant was captured from cell culture medium to a density of 40-150 RU on a CM-5 sensor chip pre-immobilised with anti-His antibody (14,000 RU). In an initial screening study, FVIII was injected over the captured mutants for 5 minutes at 1 nM and dissociation monitored for 5 minutes.
All sensorgrams were double referenced by subtraction of signals from a reference spot (containing only immobilised anti His antibody) and from a blank injection. Binding kinetics were determined by fitting the double referenced sensorgrams to a 1:1 kinetic model.

B1: Hu-vWF[764-1270]-8His S764P-K773N (other)
chain: PLSCRPPMVNLVCPADNLRAEGLECTKTCQNYDLECMSMGCVSGCLCPPGMVRHENRCVALERCPCFHQGKEYAPGETVKIGCNTCVCRDRKWNCTDHVCDATCSTIGMAHYLTFDGLKYLFPGECQYVLVQDYCGSNPGTFRILVGNKGCSHPSVKCKKRVTILVEGGEIELFDGEVNVKRPMKDETHFEVVESGRYIILLLGKALSVVWDRHLSISVVLKQTYQEKVCGLCGNFDGIQNNDLTSSNLQVEEDPVDFGNSWKVSSQCADTRKVPLDSSPATCHNNIMKQTMVDSSCRILTSDVFQDCNKLVDPEPYLDVCIYDTCSCESIGDCACFCDTIAAYAHVCAQHGKVVTWRTATLCPQSCEERNLRENGYECEWRYNSCAPACQVTCQHPEPLACPVQCVEGCHAHCPPGKILDELLQTCVDPEDCPVCEVAGRRFASGKKVTLNPSDPEHCQICHCDVVNLTCEACQEPGGLVVPPTDAPVSPTTLYVEDISEPPLHDFHHHHHHHH
Kd: 63.1 pM
koff: 0.000347 s⁻¹
kon: 5.5e+06 M⁻¹ s⁻¹

B2: Hu-vWF[764-1270]-8His S764P-K773P (other)
chain: PLSCRPPMVPLVCPADNLRAEGLECTKTCQNYDLECMSMGCVSGCLCPPGMVRHENRCVALERCPCFHQGKEYAPGETVKIGCNTCVCRDRKWNCTDHVCDATCSTIGMAHYLTFDGLKYLFPGECQYVLVQDYCGSNPGTFRILVGNKGCSHPSVKCKKRVTILVEGGEIELFDGEVNVKRPMKDETHFEVVESGRYIILLLGKALSVVWDRHLSISVVLKQTYQEKVCGLCGNFDGIQNNDLTSSNLQVEEDPVDFGNSWKVSSQCADTRKVPLDSSPATCHNNIMKQTMVDSSCRILTSDVFQDCNKLVDPEPYLDVCIYDTCSCESIGDCACFCDTIAAYAHVCAQHGKVVTWRTATLCPQSCEERNLRENGYECEWRYNSCAPACQVTCQHPEPLACPVQCVEGCHAHCPPGKILDELLQTCVDPEDCPVCEVAGRRFASGKKVTLNPSDPEHCQICHCDVVNLTCEACQEPGGLVVPPTDAPVSPTTLYVEDISEPPLHDFHHHHHHHH
Kd: 22.2 pM
koff: 0.000501 s⁻¹
kon: 2.26e+07 M⁻¹ s⁻¹

B3: Hu-vWF[764-1270]-8His S764P-K773Q (other)
chain: PLSCRPPMVQLVCPADNLRAEGLECTKTCQNYDLECMSMGCVSGCLCPPGMVRHENRCVALERCPCFHQGKEYAPGETVKIGCNTCVCRDRKWNCTDHVCDATCSTIGMAHYLTFDGLKYLFPGECQYVLVQDYCGSNPGTFRILVGNKGCSHPSVKCKKRVTILVEGGEIELFDGEVNVKRPMKDETHFEVVESGRYIILLLGKALSVVWDRHLSISVVLKQTYQEKVCGLCGNFDGIQNNDLTSSNLQVEEDPVDFGNSWKVSSQCADTRKVPLDSSPATCHNNIMKQTMVDSSCRILTSDVFQDCNKLVDPEPYLDVCIYDTCSCESIGDCACFCDTIAAYAHVCAQHGKVVTWRTATLCPQSCEERNLRENGYECEWRYNSCAPACQVTCQHPEPLACPVQCVEGCHAHCPPGKILDELLQTCVDPEDCPVCEVAGRRFASGKKVTLNPSDPEHCQICHCDVVNLTCEACQEPGGLVVPPTDAPVSPTTLYVEDISEPPLHDFHHHHHHHH
Kd: 28.8 pM
koff: 0.000128 s⁻¹
kon: 4.44e+06 M⁻¹ s⁻¹

B4: Hu-vWF[764-1270]-8His S764P-K773R (other)
chain: PLSCRPPMVRLVCPADNLRAEGLECTKTCQNYDLECMSMGCVSGCLCPPGMVRHENRCVALERCPCFHQGKEYAPGETVKIGCNTCVCRDRKWNCTDHVCDATCSTIGMAHYLTFDGLKYLFPGECQYVLVQDYCGSNPGTFRILVGNKGCSHPSVKCKKRVTILVEGGEIELFDGEVNVKRPMKDETHFEVVESGRYIILLLGKALSVVWDRHLSISVVLKQTYQEKVCGLCGNFDGIQNNDLTSSNLQVEEDPVDFGNSWKVSSQCADTRKVPLDSSPATCHNNIMKQTMVDSSCRILTSDVFQDCNKLVDPEPYLDVCIYDTCSCESIGDCACFCDTIAAYAHVCAQHGKVVTWRTATLCPQSCEERNLRENGYECEWRYNSCAPACQVTCQHPEPLACPVQCVEGCHAHCPPGKILDELLQTCVDPEDCPVCEVAGRRFASGKKVTLNPSDPEHCQICHCDVVNLTCEACQEPGGLVVPPTDAPVSPTTLYVEDISEPPLHDFHHHHHHHH
Kd: 11.6 pM
koff: 7.42e-05 s⁻¹
kon: 6.39e+06 M⁻¹ s⁻¹

B5: Hu-vWF[764-1270]-8His S764P-K773S (other)
chain: PLSCRPPMVSLVCPADNLRAEGLECTKTCQNYDLECMSMGCVSGCLCPPGMVRHENRCVALERCPCFHQGKEYAPGETVKIGCNTCVCRDRKWNCTDHVCDATCSTIGMAHYLTFDGLKYLFPGECQYVLVQDYCGSNPGTFRILVGNKGCSHPSVKCKKRVTILVEGGEIELFDGEVNVKRPMKDETHFEVVESGRYIILLLGKALSVVWDRHLSISVVLKQTYQEKVCGLCGNFDGIQNNDLTSSNLQVEEDPVDFGNSWKVSSQCADTRKVPLDSSPATCHNNIMKQTMVDSSCRILTSDVFQDCNKLVDPEPYLDVCIYDTCSCESIGDCACFCDTIAAYAHVCAQHGKVVTWRTATLCPQSCEERNLRENGYECEWRYNSCAPACQVTCQHPEPLACPVQCVEGCHAHCPPGKILDELLQTCVDPEDCPVCEVAGRRFASGKKVTLNPSDPEHCQICHCDVVNLTCEACQEPGGLVVPPTDAPVSPTTLYVEDISEPPLHDFHHHHHHHH
Kd: 14.2 pM
koff: 0.000306 s⁻¹
kon: 2.16e+07 M⁻¹ s⁻¹

B6: Hu-vWF[764-1270]-8His S764P-K773T (other)
chain: PLSCRPPMVTLVCPADNLRAEGLECTKTCQNYDLECMSMGCVSGCLCPPGMVRHENRCVALERCPCFHQGKEYAPGETVKIGCNTCVCRDRKWNCTDHVCDATCSTIGMAHYLTFDGLKYLFPGECQYVLVQDYCGSNPGTFRILVGNKGCSHPSVKCKKRVTILVEGGEIELFDGEVNVKRPMKDETHFEVVESGRYIILLLGKALSVVWDRHLSISVVLKQTYQEKVCGLCGNFDGIQNNDLTSSNLQVEEDPVDFGNSWKVSSQCADTRKVPLDSSPATCHNNIMKQTMVDSSCRILTSDVFQDCNKLVDPEPYLDVCIYDTCSCESIGDCACFCDTIAAYAHVCAQHGKVVTWRTATLCPQSCEERNLRENGYECEWRYNSCAPACQVTCQHPEPLACPVQCVEGCHAHCPPGKILDELLQTCVDPEDCPVCEVAGRRFASGKKVTLNPSDPEHCQICHCDVVNLTCEACQEPGGLVVPPTDAPVSPTTLYVEDISEPPLHDFHHHHHHHH
Kd: 16 pM
koff: 7.5e-05 s⁻¹
kon: 4.68e+06 M⁻¹ s⁻¹

B7: Hu-vWF[764-1270]-8His S764P-K773V (other)
chain: PLSCRPPMVVLVCPADNLRAEGLECTKTCQNYDLECMSMGCVSGCLCPPGMVRHENRCVALERCPCFHQGKEYAPGETVKIGCNTCVCRDRKWNCTDHVCDATCSTIGMAHYLTFDGLKYLFPGECQYVLVQDYCGSNPGTFRILVGNKGCSHPSVKCKKRVTILVEGGEIELFDGEVNVKRPMKDETHFEVVESGRYIILLLGKALSVVWDRHLSISVVLKQTYQEKVCGLCGNFDGIQNNDLTSSNLQVEEDPVDFGNSWKVSSQCADTRKVPLDSSPATCHNNIMKQTMVDSSCRILTSDVFQDCNKLVDPEPYLDVCIYDTCSCESIGDCACFCDTIAAYAHVCAQHGKVVTWRTATLCPQSCEERNLRENGYECEWRYNSCAPACQVTCQHPEPLACPVQCVEGCHAHCPPGKILDELLQTCVDPEDCPVCEVAGRRFASGKKVTLNPSDPEHCQICHCDVVNLTCEACQEPGGLVVPPTDAPVSPTTLYVEDISEPPLHDFHHHHHHHH
Kd: 10.1 pM
koff: 0.000157 s⁻¹
kon: 1.55e+07 M⁻¹ s⁻¹

B8: Hu-vWF[764-1270]-8His S764P-K773W (other)
chain: PLSCRPPMVWLVCPADNLRAEGLECTKTCQNYDLECMSMGCVSGCLCPPGMVRHENRCVALERCPCFHQGKEYAPGETVKIGCNTCVCRDRKWNCTDHVCDATCSTIGMAHYLTFDGLKYLFPGECQYVLVQDYCGSNPGTFRILVGNKGCSHPSVKCKKRVTILVEGGEIELFDGEVNVKRPMKDETHFEVVESGRYIILLLGKALSVVWDRHLSISVVLKQTYQEKVCGLCGNFDGIQNNDLTSSNLQVEEDPVDFGNSWKVSSQCADTRKVPLDSSPATCHNNIMKQTMVDSSCRILTSDVFQDCNKLVDPEPYLDVCIYDTCSCESIGDCACFCDTIAAYAHVCAQHGKVVTWRTATLCPQSCEERNLRENGYECEWRYNSCAPACQVTCQHPEPLACPVQCVEGCHAHCPPGKILDELLQTCVDPEDCPVCEVAGRRFASGKKVTLNPSDPEHCQICHCDVVNLTCEACQEPGGLVVPPTDAPVSPTTLYVEDISEPPLHDFHHHHHHHH
Kd: 257 pM
koff: 0.00321 s⁻¹
kon: 1.25e+07 M⁻¹ s⁻¹
